B1: yeast non hypusine-containing eIF5A (eIF5A-Lys), wild type (natural protein)
chain: MSDEEHTFETADAGSSATYPMQCSALRKNGFVVIKSRPCKIVDMSTSKTGKHGHAKVHLVAIDIFTGKKLEDLSPSTHNMEVPVVKRNEYQLLDIDDGFLSLMNMDGDTKDDVKAPEGELGDSLQTAFDEGKDLMVTIISAMGEEAAISFKEAARTD
B2: yeast hypusine-containing eIF5A (eIF5A-Hyp), wild type (natural protein)
chain: B1 chain
modifications: hypusine at Lys51
B3: hypusine-containing eIF5A from mutant tif51A-4 (K86A/R87A/E89A) (natural protein)
chain: B1 chain with K86A, R87A, E89A
modifications: hypusine at Lys51
B4: non hypusine-containing eIF5A from mutant tif51A-4 (K86A/R87A/E89A) (natural protein)
chain: B1 chain with K86A, R87A, E89A

Positions count from the first letter of the chain named. Names may count otherwise.

The test addresses yeast 80S ribosome (S. cerevisiae (endogenous in yeast)) (UniProt P26321). The experiment in a line: fluorescence polarisation. (In fluorescence polarisation assays a small probe gives low polarisation when free and higher when bound to something large.)
Sequence of UniProt P26321 (P26321 whole entry, looked up): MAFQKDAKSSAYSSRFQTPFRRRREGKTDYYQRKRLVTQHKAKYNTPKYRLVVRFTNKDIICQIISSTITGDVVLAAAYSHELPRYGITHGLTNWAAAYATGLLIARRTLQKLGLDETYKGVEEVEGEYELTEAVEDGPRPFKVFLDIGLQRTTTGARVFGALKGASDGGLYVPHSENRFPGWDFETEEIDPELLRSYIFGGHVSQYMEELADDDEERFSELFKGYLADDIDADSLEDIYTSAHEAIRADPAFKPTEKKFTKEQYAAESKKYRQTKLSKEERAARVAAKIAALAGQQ
The Ki is the equilibrium dissociation constant of an inhibitor or competing ligand from its target. A low value points to tighter binding. B1: the Ki amounted to 238 nM.
Under B2 stands 8 nM.
Molecule B3 gave an inhibition constant Ki of 171 nM.
The same measure for B4: 388 nM.
